Measured values: PMC5405111 (Molecular Cell, 2017)

B1: RRM2B subunit of ribonucleotide reductase (natural protein, human (endogenous in RKO), UniProt Q7LG56 1-351, looked up)
chain: MGDPERPEAAGLDQDERSSSDTNESEIKSNEEPLLRKSSRRFVIFPIQYPDIWKMYKQAQASFWTAEEVDLSKDLPHWNKLKADEKYFISHILAFFAASDGIVNENLVERFSQEVQVPEARCFYGFQILIENVHSEMYSLLIDTYIRDPKKREFLFNAIETMPYVKKKADWALRWIADRKSTFGERVVAFAAVEGVFFSGSFAAIFWLKKRGLMPGLTFSNELISRDEGLHCDFACLMFQYLVNKPSEERVREIIVDAVKIEQEFLTEALPVGLIGMNCILMKQYIEFVADRLLVELGFSKVFQAENPFDFMENISLEGKTNFFEKRVSEYQRFAVMAETTDNVFTLDADF
B2: RRM2 subunit of ribonucleotide reductase (natural protein, human (endogenous in RKO), UniProt P31350 1-389, looked up)
chain: MLSLRVPLAPITDPQQLQLSPLKGLSLVDKENTPPALSGTRVLASKTARRIFQEPTEPKTKAAAPGVEDEPLLRENPRRFVIFPIEYHDIWQMYKKAEASFWTAEEVDLSKDIQHWESLKPEERYFISHVLAFFAASDGIVNENLVERFSQEVQITEARCFYGFQIAMENIHSEMYSLLIDTYIKDPKEREFLFNAIETMPCVKKKADWALRWIGDKEATYGERVVAFAAVEGIFFSGSFASIFWLKKRGLMPGLTFSNELISRDEGLHCDFACLMFKHLVHKPSEERVREIIINAVRIEQEFLTEALPVKLIGMNCTLMKQYIEFVADRLMLELGFSKVFRVENPFDFMENISLEGKTNFFEKRVGEYQRMGVMSSPTENSFTLDADF

Molecular target: T1, RRM1 subunit of ribonucleotide reductase (human (endogenous in RKO), UniProt P23921 1-792)
T1 sequence (looked up): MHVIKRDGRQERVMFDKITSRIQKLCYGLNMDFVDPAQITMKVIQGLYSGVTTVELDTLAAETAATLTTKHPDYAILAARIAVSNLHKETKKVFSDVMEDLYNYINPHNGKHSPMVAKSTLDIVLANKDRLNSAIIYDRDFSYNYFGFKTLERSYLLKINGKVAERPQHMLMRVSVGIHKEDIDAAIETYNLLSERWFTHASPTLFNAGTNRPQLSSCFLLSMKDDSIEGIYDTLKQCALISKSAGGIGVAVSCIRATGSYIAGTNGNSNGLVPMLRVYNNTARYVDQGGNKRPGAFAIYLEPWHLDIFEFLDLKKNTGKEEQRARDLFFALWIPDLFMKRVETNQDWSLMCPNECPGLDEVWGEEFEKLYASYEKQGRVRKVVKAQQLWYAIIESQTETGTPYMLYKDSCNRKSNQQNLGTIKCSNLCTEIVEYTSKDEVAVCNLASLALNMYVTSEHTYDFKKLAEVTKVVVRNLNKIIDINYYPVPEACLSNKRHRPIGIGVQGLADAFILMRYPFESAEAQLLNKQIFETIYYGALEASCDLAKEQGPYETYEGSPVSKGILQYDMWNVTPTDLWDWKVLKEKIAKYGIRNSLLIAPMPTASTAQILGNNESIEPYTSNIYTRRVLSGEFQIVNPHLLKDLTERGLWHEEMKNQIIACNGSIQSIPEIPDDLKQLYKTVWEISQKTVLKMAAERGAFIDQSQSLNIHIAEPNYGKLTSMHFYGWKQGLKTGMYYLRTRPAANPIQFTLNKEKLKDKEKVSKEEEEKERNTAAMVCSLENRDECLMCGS
Test: co-IP

Binder | fold increase of RRM2B bound to RRM1 in <0.1% O2 against normoxia [fold] | fold decrease of RRM2 bound to RRM1 in <0.1% O2 against normoxia [fold]
B1 | 5.3 | 
B2 |  | 1.8
